The record followed here is patent US9872921B2, “DE-N-acetyl sialic acid antigens, antibodies thereto, and methods of use in cancer therapy” (priority 2004, dated 2018).

A short description of assay [1]: HPTLC / Western blot reactivity with gangliosides extracted from SK-MEL-28 cells grown with N-trichloroacetyl mannosamine. It is filed as binding, human. Particulars: mAbs 5 μg/ml; lanes 2 and 5. On the procedure: SK-Mel-28 cells were grown on square 245 mm×245 mm bioassay dish (Corning) until near confluent. Growth medium (RPMI supplemented with 5 mM glutamine, 1 mM sodium pyruvate, 0.1 mM non-essential amino acids, 10% fetal bovine serum, and antibiotics) was replaced with growth medium containing trichloroacetyl mannosamine (5 mM) for 24 hours, after which cells were washed three times with PBS and lysed by hypotonic shock in distilled water (1 hour at 4° C.). This was followed by 3 cycles of freeze/thawing using ethanol on dry ice/37° C. water bath. The crude membrane fraction was pelleted by centrifugation at 4500 g for 20 minutes at 4° C. The pellet was lyophilized and the lipids extracted by stepwise washing with methanol/chloroform (1:2, 1:1, 2:1 by volume) for 30 minutes (Geilen et al 1992, Arch. Biochem. Biophys. 296, 108-114). The organic phase was dried under a steady stream of oxygen-free nitrogen gas and resuspended in 200 μl of chloroform/methanol/0.02% CaCl2 (50:40:10).
Lipids in the extract and in chemically de-N-acylated GD3 were analyzed by separation on high performance thin layer chromatography (HPTLC) and Western blot. […]
For orientation: Immunoblotting shows a protein as a band on a membrane.

A short description of assay [2]: HPTLC / Western blot reactivity with chemically de-N-acylated GD3. Format: binding. Particulars: mAbs 5 μg/ml. On the procedure: De-N-acyl GM3 and GD3 (Calbiochem) were prepared by suspending 1 mg of ganglioside in 2 ml of 2.5 M tetrabutylammonium hydroxide and 3 ml of butanol then heating the mixture to >100 degrees C. for 4 hours. After cooling the mixture to ambient temperature, the pH was adjusted to about 7 by adding 2 M HCl and the butanol removed by evaporation under a stream of N2. The remaining aqueous layer was dialyzed (1K cut-off dialysis tubing) against PBS buffer and used without further modification as an antigen for ELISA.
Lipids in the extract and in chemically de-N-acylated GD3 were analyzed by separation on high performance thin layer chromatography (HPTLC) and Western blot. Samples of the ganglioside extract, the ganglioside extract that had been treated with sodium borohydride (1 mg/100 μl at ambient temperature for 2 h) to remove the trichloroacetyl protecting group, and chemically de-N-acylated GD3 were spotted onto an aluminum-backed silica gel 60 HPTLC plate (Merck) and the plate developed in chloroform/methanol/0.02% CaCl2 (50:40:10). Plates used for Western blot were dried and dipped in a solution of 0.4% polyisobutylmethacrylate in hexame/chloroform (21:8) for 1 min. The plates were blocked with 1% bovine serum albumin (BSA) in PBS buffer containing 0.1% sodium azide. MAbs (5 μg/ml) in the same blocking buffer were incubated with the plates at 4° C. overnight. […]

The subject of the next assay is normal melanocytes. The assay can be described thus: Immunostaining of frozen sections of normal human skin. Particulars: frozen unfixed sections, 400× magnification. On the procedure:
To determine whether there is a difference in expression of SEAM 3-reactive antigen between normal melanocytes and melanoma tumor cells, immuno-staining of thin sections of each type of tissue were performed. In addition to SEAM 3, controls included the secondary antibody alone and R24, which binds to the ganglioside GD3 that is expressed in normal melanocytes and is overexpressed in some melanomas (Dippold et al. Proc Natl Acad Sci USA, 1980. 77(10): 6114-8.; Graus, et al., Brain Res, 1984. 324(1): 190-4; Houghton et al. Proc Natl Acad Sci USA, 1985. 82(4):1242-6; Panneerselvam et al. J Immunol, 1986. 136(7): 2534-41; Real et al. Cancer Res, 1985. 45(9): 4401-11; Vadhan-Raj et al. J Clin Oncol, 1988. 6(10): 1636-48; Welt t al. Clin Immunol Immunopathol, 1987. 45(2): 214-29).
The tissue sections were made from frozen samples of normal skin (HuSkinTb111 in FIG. 39) and two human melanomas (HuMel1151 and HuMel4034). To prevent the possibility of blocking de-N-acetyl antigen or extracting a lipid containing the antigen, the sections were prepared from frozen tissue and were dried onto the slides but not fixed with aldehydes or organic solvents (Chammas et al. Cancer Res, 1999. 59(6): 1337-46). […] Bound antibody was then detected using the DAKO LSAB kit following the manufacturer's directions (Thermo Fisher Scientific, Waltham, Mass.). […]

B1: SEAM 3: murine anti-N-Pr NmB polysaccharide monoclonal antibody (IgG2b), ATCC Deposit No. HB-12170 (antibody, V domains shown)
VH: EVKLQESGGGLVQPGDSLSLSCAASGFTFTPYYMGWVRQPPGKALEWLGYIRNKANGYTTEYSASVKGRFTISRDNSQSILYLQMNALRAEDSATYYCARYARGTVDSWGQGTTLTVS
VL: DIVMTQSPLTLSVTIGQPASISCKSSQSLLHSNGKTYLNWLLQRPGQSPKLLIYLVSKLESGVPDRFSGSGSGTDFTLKISRVEAEDLGLYYCLQIIHFPHTFGAGTKLELKRA
modifications: mouse
As for B1, the “reactivity with SK-MEL-28 lipid extract treated with NaBH4 (protecting group removed)” value in assay [1] is “reacts with a different slower moving de-N-acetyl ganglioside derivative”. Moreover, the “reactivity with de-N-acyl GD3 / de-N-acyl gangliosides produced by alkali treatment” value in assay [2] was “does not react”. In the assay with normal melanocytes, the “immunostaining of normal human skin” value is “binds to an antigen in neural like structures of the dermis but is not present in melanocytes”.
